In doi:10.1101/2020.04.27.064493:

Target: human DNMT1 fragment (residues 351-1600) (human) (UniProt P26358)
Assay: ITC

| Substance | Kd |
| --- | --- |
| H3_(1-24)K9me3Ub2: H3 (1-24) K9me3 K18C/K23C peptide carrying two ubiquitin(G76C) through dichloroacetone linkage (from UniProt P68431;P0CG48) (complex) | 17 nM |
| H3_(1-24)Ub2: H3 (1-24) K18C/K23C peptide carrying two ubiquitin(G76C) through dichloroacetone linkage (from UniProt P68431;P0CG48) (complex) | 91 nM |
